Results published in the supplement of paper PMC5998384.

Assays:
HeLa Kyoto [1] = experiment: thermal stability score vs G1/S (z-score of summed log2 fold changes over temperatures); higher = more thermally stable than in G1/S
HeLa Kyoto [2] = experiment: melting temperature (median over replicates), in situ; higher = more thermally stable
[3] = cell cycle stage: early G1 (4.5 h after nocodazole release)
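Wherever melting temperature (median over replicates), in situ is given: HeLa Kyoto cells synchronized by double thymidine or nocodazole block, proteins quantified by TMT10plex mass spectrometry, three independent biological replicates.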
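Wherever thermal stability score vs G1/S (z-score of summed log2 fold changes over temperatures) is given: synchronized HeLa Kyoto cells, proteins quantified by TMT10plex mass spectrometry, three biological replicates, mitosis taken 0.5 h after nocodazole release, G1/S directly after double thymidine block.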

Row | Sequence | thermal stability score (HeLa Kyoto [1]; [3]) | thermal stability score (HeLa Kyoto [1]; cell cycle stage: mitosis) | melting temperature (HeLa Kyoto [2]; cell cycle stage: G1/S) | melting temperature (HeLa Kyoto [2]; cell cycle stage: mitosis)
1 | MARAAPLLAALTALLAAAAAGGDAPPGKIAVVGAGIGGSAVAHFLQQHFGPRVQIDVYEKGTVGGRLATISVNKQHYESGAASFHSLSLHMQDFVKLLGLRHRREVVGRSAIFGGEHFMLEETDWYLLNLFRLWWHYGISFLRLQMWVEEVMEKFMRIYKYQAHGYAFSGVEELLYSLGESTFVNMTQHSVAESLLQVGVTQRFIDDVVSAVLRASYGQSAAMPAFAGAMSLAGAQGSLWSVEGGNKLVCSGLLKLTKANVIHATVTSVTLHSTEGKALYQVAYENEVGNSSDFYDIVVIATPLHLDNSSSNLTFAGFHPPIDDVQGSFQPTVVSLVHGYLNSSYFGFPDPKLFPFANILTTDFPSFFCTLDNICPVNISASFRRKQPQEAAVWRVQSPKPLFRTQLKTLFRSYYSVQTAEWQAHPLYGSRPTLPRFALHDQLFYLNALEWAASSVEVMAVAAKNVALLAYNRWYQDLDKIDQKDLMHKVKTEL [PCYOX1L] | 0.689 | 1.38 | 56.6 °C | 56.2 °C
2 | MATRRLTDAFLLLRNNSIQNRQLLAEQVSSHITSSPLHSRSIAAELDELADDRMALVSGISLDPEAAIGVTKRPPPKWVDGVDEIQYDVGRIKQKMKELASLHDKHLNRPTLDDSSEEEHAIEITTQEITQLFHRCQRAVQALPSRARACSEQEGRLLGNVVASLAQALQELSTSFRHAQSGYLKRMKNREERSQHFFDTSVPLMDDGDDNTLYHRGFTEDQLVLVEQNTLMVEEREREIRQIVQSISDLNEIFRDLGAMIVEQGTVLDRIDYNVEQSCIKTEDGLKQLHKAEQYQKKNRKMLVILILFVIIIVLIVVLVGVKSR [STX16] | -1.14 | -0.879 | 51 °C | 49.8 °C
3 | MAYQLYRNTTLGNSLQESLDELIQSQQITPQLALQVLLQFDKAINAALAQRVRNRVNFRGSLNTYRFCDNVWTFVLNDVEFREVTELIKVDKVKIVACDGKNTGSNTTE [GTF2A2] | 0.419 | 0.557 | 58.6 °C | 53.4 °C
4 | MDGPVAEHAKQEPFHVVTPLLESWALSQVAGMPVFLKCENVQPSGSFKIRGIGHFCQEMAKKGCRHLVCSSGGNAGIAAAYAARKLGIPATIVLPESTSLQVVQRLQGEGAEVQLTGKVWDEANLRAQELAKRDGWENVPPFDHPLIWKGHASLVQELKAVLRTPPGALVLAVGGGGLLAGVVAGLLEVGWQHVPIIAMETHGAHCFNAAITAGKLVTLPDITSVAKSLGAKTVAARALECMQVCKIHSEVVEDTEAVSAVQQLLDDERMLVEPACGAALAAIYSGLLRRLQAEGCLPPSLTSVVVIVCGGNNINSRELQALKTHLGQV [SDSL] | -3.07 | -2.65 | 55.1 °C | 57.9 °C
5 | MDSFNYTTPDYGHYDDKDTLDLNTPVDKTSNTLRVPDILALVIFAVVFLVGVLGNALVVWVTAFEAKRTINAIWFLNLAVADFLSCLALPILFTSIVQHHHWPFGGAACSILPSLILLNMYASILLLATISADRFLLVFKPIWCQNFRGAGLAWIACAVAWGLALLLTIPSFLYRVVREEYFPPKVLCGVDYSHDKRRERAVAIVRLVLGFLWPLLTLTICYTFILLRTWSRRATRSTKTLKVVVAVVASFFIFWLPYQVTGIMMSFLEPSSPTFLLLKKLDSLCVSFAYINCCINPIIYVVAGQGFQGRLRKSLPSLLRNVLTEESVVRESKSFTRSTVDTMAQKTQAV [C5AR1] | -2.16 | -2.08 | 57.8 °C | 57.4 °C
6 | MEEHGVTQTEHMATIEAHAVAQQVQQVHVATYTEHSMLSADEDSPSSPEDTSYDDSDILNSTAADEVTAHLAAAGPVGMAAAAAVATGKKRKRPHVFESNPSIRKRQQTRLLRKLRATLDEYTTRVGQQAIVLCISPSKPNPVFKVFGAAPLENVVRKYKSMILEDLESALAEHAPAPQEVNSELPPLTIDGIPVSVDKMTQAQLRAFIPEMLKYSTGRGKPGWGKESCKPIWWPEDIPWANVRSDVRTEEQKQRVSWTQALRTIVKNCYKQHGREDLLYAFEDQQTQTQATATHSIAHLVPSQTVVQTFSNPDGTVSLIQVGTGATVATLADASELPTTVTVAQVNYSAVADGEVEQNWATLQGGEMTIQTTQASEATQAVASLAEAAVAASQEMQQGATVTMALNSEAAAHAVATLAEATLQGGGQIVLSGETAAAVGALTGVQDANGLVQIPVSMYQTVVTSLAQGNGPVQVAMAPVTTRISDSAVTMDGQAVEVVTLEQ [NRF1] | -0.324 | 0.518 | – | 51.4 °C
7 | MEKWYLMTVVVLIGLTVRWTVSLNSYSGAGKPPMFGDYEAQRHWQEITFNLPVKQWYFNSSDNNLQYWGLDYPPLTAYHSLLCAYVAKFINPDWIALHTSRGYESQAHKLFMRTTVLIADLLIYIPAVVLYCCCLKEISTKKKIANALCILLYPGLILIDYGHFQYNSVSLGFALWGVLGISCDCDLLGSLAFCLAINYKQMELYHALPFFCFLLGKCFKKGLKGKGFVLLVKLACIVVASFVLCWLPFFTEREQTLQVLRRLFPVDRGLFEDKVANIWCSFNVFLKIKDILPRHIQLIMSFCSTFLSLLPACIKLILQPSSKGFKFTLVSCALSFFLFSFQVHEKSILLVSLPVCLVLSEIPFMSTWFLLVSTFSMLPLLLKDELLMPSVVTTMAFFIACVTSFSIFEKTSEEELQLKSFSISVRKYLPCFTFLSRIIQYLFLISVITMVLLTLMTVTLDPPQKLPDLFSVLVCFVSCLNFLFFLVYFNIIIMWDSKSGRNQKKIS [ALG6] | 0.428 | -1.17 | 54.2 °C | 54.3 °C
8 | METLYRVPFLVLECPNLKLKKPPWLHMPSAMTVYALVVVSYFLITGGIIYDVIVEPPSVGSMTDEHGHQRPVAFLAYRVNGQYIMEGLASSFLFTMGGLGFIILDRSNAPNIPKLNRFLLLFIGFVCVLLSFFMARVFMRMKLPGYLMG [OSTC] | 0.174 | 0.407 | – | 54.8 °C
